Measurements taken from US20110281938A1.

Target: tissue factor:FVIIa complex (TF:FVIIa) (UniProt P13726)
Test: cell-based or functional assay

Chain of tissue factor:FVIIa complex (TF:FVIIa) (P13726 33-295 limits assumed, chain 1 of 2): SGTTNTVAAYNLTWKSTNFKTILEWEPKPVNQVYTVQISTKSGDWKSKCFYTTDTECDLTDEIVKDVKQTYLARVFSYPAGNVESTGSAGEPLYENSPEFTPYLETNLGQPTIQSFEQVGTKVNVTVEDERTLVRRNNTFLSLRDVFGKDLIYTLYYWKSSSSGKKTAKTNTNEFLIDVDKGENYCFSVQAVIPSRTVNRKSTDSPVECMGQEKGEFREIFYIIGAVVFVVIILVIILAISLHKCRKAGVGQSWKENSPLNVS
Chain of tissue factor:FVIIa complex (TF:FVIIa) (P08709 61-466 limits assumed, chain 2 of 2, further chain): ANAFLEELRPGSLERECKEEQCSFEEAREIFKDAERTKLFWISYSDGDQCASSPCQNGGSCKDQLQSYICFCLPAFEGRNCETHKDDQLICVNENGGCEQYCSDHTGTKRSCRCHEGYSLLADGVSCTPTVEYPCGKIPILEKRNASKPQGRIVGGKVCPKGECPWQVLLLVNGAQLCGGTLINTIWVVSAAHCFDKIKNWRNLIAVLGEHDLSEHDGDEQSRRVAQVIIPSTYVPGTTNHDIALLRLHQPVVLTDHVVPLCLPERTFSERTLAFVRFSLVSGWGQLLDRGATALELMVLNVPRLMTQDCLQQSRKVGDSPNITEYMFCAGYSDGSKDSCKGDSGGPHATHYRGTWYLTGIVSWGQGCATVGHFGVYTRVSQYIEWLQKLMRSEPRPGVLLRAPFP

A rate of FXa generation at 4 minutes, extrinsic tenase (Xase) inhibition assay, 1 nM TFPI of 70% was found for “TFPI (source and species not stated; Examples 8, 12 and 45) (from UniProt P10646 29-304)” in this work.
